Data reported in paper PMC2762204 (Cancer research, 2009).
Where a chain is given by its changes, count along the chain named.

B1: FLAG-Sprouty2 2A (S111 and S120 to alanines) (natural protein, mouse, UniProt Q9QXV8 1-315, looked up)
chain: MEARAQSGNGSQPLLQTAHDSGRQRGEPDPRDALTQQVHVLSLDQIRAIRNTNEYTEGPTVVPRPGLKPAPRPSTQHKHERLHGLPEHRQPPRLQPSQVHSSRAPLSRSIATVSSGSRSATRTSTSSSSSEQRLLGPSFSHGPAAADGIIRVQPKSELKPGDVKPLSKDDLGLHAYRCEDCGKCKCKECTYPRPLPSDWICDKQCLCSAQNVIDYGTCVCCVKGLFYHCSNDDEDNCADNPCSCSQSHCCTRWSAMGVMSLFLPCLWCYLPAKGCLKLCQGCYDRVNRPGCRCKNSNTVCCKVPTVPPRNFEKPT
B2: FLAG-Sprouty2 6A (all six serine sites to alanines) (natural protein, mouse, UniProt Q9QXV8 1-315, looked up)
chain: B1 chain with S7A, S42A, S140A, S167A

How the values were obtained:
[1] = biological target: FLAG-Sprouty2 co-expressed with active MEK:EE (phosphorylated) (mouse) (UniProt Q9QXV8); experiment: pull-down
Myc-B-Raf wild-type = Myc-B-Raf wild-type (UniProt P15056 1-766); experiment: co-IP
Sequence of Myc-B-Raf wild-type (P15056 whole entry): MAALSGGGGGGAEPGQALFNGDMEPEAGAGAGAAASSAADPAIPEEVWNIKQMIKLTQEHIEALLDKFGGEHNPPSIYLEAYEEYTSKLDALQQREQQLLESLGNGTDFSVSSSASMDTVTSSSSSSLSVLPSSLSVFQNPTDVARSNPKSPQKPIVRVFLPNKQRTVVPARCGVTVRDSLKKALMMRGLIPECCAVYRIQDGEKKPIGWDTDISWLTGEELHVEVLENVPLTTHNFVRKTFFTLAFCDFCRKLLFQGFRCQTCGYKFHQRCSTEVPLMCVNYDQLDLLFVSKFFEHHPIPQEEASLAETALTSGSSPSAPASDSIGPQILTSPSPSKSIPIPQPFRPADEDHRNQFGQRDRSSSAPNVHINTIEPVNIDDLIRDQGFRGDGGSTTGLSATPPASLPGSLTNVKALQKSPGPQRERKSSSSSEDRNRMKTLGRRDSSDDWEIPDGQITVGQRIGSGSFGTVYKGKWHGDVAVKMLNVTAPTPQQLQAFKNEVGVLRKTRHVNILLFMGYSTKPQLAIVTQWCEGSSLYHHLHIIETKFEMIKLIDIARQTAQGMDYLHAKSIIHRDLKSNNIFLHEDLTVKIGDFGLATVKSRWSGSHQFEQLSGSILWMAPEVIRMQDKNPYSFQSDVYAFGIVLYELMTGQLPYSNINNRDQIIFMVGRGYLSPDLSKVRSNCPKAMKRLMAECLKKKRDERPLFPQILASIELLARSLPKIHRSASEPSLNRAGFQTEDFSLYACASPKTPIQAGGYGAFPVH

| Molecule | percent reduction of binding against Sprouty2 expressed without MEK:EE [1] | fold change of B-Raf binding against wild-type Sprouty2 (Myc-B-Raf wild-type) |
| --- | --- | --- |
| Recombinant human wild-type GST-B-Raf catalytic domain (domain or fragment) | 40% |  |
| B1 |  | ~2 fold |
| B2 |  | ~3.5 fold |
